The subject of the series is MS2 coat protein. Briefly: apparent KD of MS2 coat protein; designed switch direction (-1 OFF switch, 1 ON switch): -1; higher = weaker reporter binding. Summed up: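 The reported apparent KD is a per-design median over clusters, from curve fits of normalised cluster fluorescence. Protein titrations used SNAP-549-labelled MS2 coat protein, doubled from 0.7 or 1.5 nM to 3 µM, in Tris-HCl pH 7.5 buffer with KCl, MgCl2, BSA, DTT, tRNA and Tween-20, with no input, 200 uM small-molecule ligand, or an oligonucleotide input. The RNA switches were transcribed on Illumina chips by stalled E. coli RNA polymerase.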

Setting [1] is: Eterna round: R95, input ligand: microRNA oligo, concentration not stated.
Setting [2] is: Eterna round: R95, input ligand: FMN 200 uM.
Where [3] appears, read: Eterna round: R95, input ligand: none.
Where [4] appears, read: input ligand: microRNA oligo, concentration not stated.

As for “AGGUGUAGAGGAUAUACUGCAAAGCACAUGAGGAUCACCCAUGUCCCUCUAUGAGAUUAAGUAGAAGGCUACACCA [Omei Ex5 C4] (Eterna round: R97, puzzle: Exclusion 5)”, the “apparent KD of MS2 coat protein” value was found to be 55.7 nM (input ligand: FMN 200 uM) and 49.9 nM (input ligand: none).

For “AGGUGUAGAGGAUAUUUAUACUCCCACAUGAGGAUCACCCAUGUCCUGGUCACCAAGGACGGAGAAGGCUACACCA [Omei Ex5 D23] (Eterna round: R97, puzzle: Exclusion 5)”, the “apparent KD of MS2 coat protein” value by setting is: (input ligand: FMN 200 uM) 48.5 nM; (input ligand: none) 41.8 nM.

Turning to “AGUAACAGAGGAUAUACUAUUUUAUGUGUUUGUUGUUUUAAACAUGAGGAUCACCCAUGUAGAAGGCUGAAUAA [JMF 88] (puzzle: Exclusion 2)”, the “apparent KD of MS2 coat protein” value under setting [1] came to 19 nM.

Take “AGUAACAGAGGAUAUACUGUUUUAUGUAUUUAUUAUUUUAAACAUGAGGAUCACCCAUGUAGAAGGCUGAAUAA [JMF 81] (puzzle: Exclusion 2)”: under setting [1], the “apparent KD of MS2 coat protein” value is 17.5 nM.

In the case of “AGUAACAGAGGAUAUACUGUUUUAUGUGUUUAUUAUUUUGAACAUGAGGAUCACCCAUGUAGAAGGCUGAAUAA [JMF 90] (puzzle: Exclusion 2)”, under setting [1], the “apparent KD of MS2 coat protein” value is 21.8 nM.

Take “AGUAACCGUCACGAAAGUGAUGGUUACACAAGUAAAUGUACAUGAGGAUCACCCAUGUCCUCAUUUGCUCGUCUUAU [Sensor 3 - 46] (puzzle: Sensor v3, turn-off variant 2)”: the “apparent KD of MS2 coat protein” value is 152 nM under setting [2], 373 nM under setting [1] and 230 nM under setting [3].

As for “AGUAACCGUCACGAAAGUGAUGGUUACGCAAGUAAAUGUACAUGAGGAUCACCCAUGUCCUCAAUUGCUCGUCUUAU [Sensor 3 - 52] (puzzle: Sensor v3, turn-off variant 2)”, the “apparent KD of MS2 coat protein” value was determined as 663 nM under setting [2], 167 nM under setting [1] and 623 nM under setting [3].

“AGUAACUAUCACGAAAGUGAUAGUUACAAAACAAGUGAAACAUGAGGAUCACCCAUGUCCUCACUUGCUCGUCUUAU [Sensor 3 - 5] (puzzle: Sensor v3, turn-off variant 2)”: the “apparent KD of MS2 coat protein” value is, setting by setting: under setting [2], 14.2 nM; under setting [1], 128 nM; under setting [3], 13.4 nM.

Turning to “AGUAACUAUCACGAAAGUGAUAGUUACAAAAGCAGUGAAACAUGAGGAUCACCCAUGUCCUCAUUUGCUCGUCUUAU [Sensor 3 - 24] (puzzle: Sensor v3, turn-off variant 2)”, the “apparent KD of MS2 coat protein” value stood at 53.4 nM under setting [2], 576 nM under setting [1] and 66.5 nM under setting [3].

As for “AGUAACUAUCACGAAAGUGAUAGUUACACAAGCAGUGGAACAUGAGGAUCACCCAUGUCCUCAUUUGCUCGUCUUAU [Sensor 3 - 27] (puzzle: Sensor v3, turn-off variant 2)”, the “apparent KD of MS2 coat protein” value is, setting by setting: under setting [2], 35.5 nM; under setting [1], 19.6 nM; under setting [3], 42.2 nM.

For “AGUACUAACACGAAAGUGUUAGUACAAAUGAGCUUUUGAACAUGAGGAUCACCCAUGUCCUCAUAAGCUCGUCUUAA [Mat - Sensor v2 - var 2 - Mod - D174] (Eterna round: R96, puzzle: Sensor v2, turn-off variant 2)”, the “apparent KD of MS2 coat protein” value (input ligand: FMN 200 uM) was 27.4 nM, the “apparent KD of MS2 coat protein” value under setting [4] is 408 nM and the “apparent KD of MS2 coat protein” value (input ligand: none) turned out to be 32.2 nM.

With “AGUACUAACACGAAAGUGUUAGUACAAUAAGCUUGUGAAACAUGAGGAUCACCCAUGUCCUCAUACGCUCGUCUUAU [salish99_TOv2_r3_055] (puzzle: Sensor v3, turn-off variant 2)”, the “apparent KD of MS2 coat protein” value was 500 nM under setting [2], 789 nM under setting [1] and 655 nM under setting [3].

As for “AGUACUAACACGAAAGUGUUAGUACAAUAAGCUUGUGAAACAUGAGGAUCACCCAUGUCCUCAUAUGCUCGUCUUAU [salish99_TOv2_r3_053] (puzzle: Sensor v3, turn-off variant 2)”, the “apparent KD of MS2 coat protein” value reads like this: under setting [2], 471 nM; under setting [1], 822 nM; under setting [3], 641 nM.

Regarding “AGUACUAACACGAAAGUGUUAGUACAAUAAGCUUGUGAAACAUGAGGAUCACCCAUGUCCUCAUCAGCUCGUCUUAU [salish99_TOv2_r3_052] (puzzle: Sensor v3, turn-off variant 2)”, the “apparent KD of MS2 coat protein” value reads like this: under setting [2], 124 nM; under setting [1], 409 nM; under setting [3], 191 nM.

Consider “AGUACUAACACGAAAGUGUUAGUACAAUAAGCUUGUGAAACAUGAGGAUCACCCAUGUCCUCUUAAGCUCGUCUUAU [salish99_TOv2_r3_047] (puzzle: Sensor v3, turn-off variant 2)”, for which the “apparent KD of MS2 coat protein” value under setting [2] was found to be 116 nM, the “apparent KD of MS2 coat protein” value under setting [1] amounted to 329 nM and the “apparent KD of MS2 coat protein” value under setting [3] was found to be 124 nM.

For the sequence “AGUACUAACACGAAAGUGUUAGUACAAUAAGCUUGUGUUACAUGAGGAUCACCCAUGUCCUCAUAAGCUCGUCUUAU [JL-sv3-2.14 mat747 mod] (puzzle: Sensor v3, turn-off variant 2)”, the “apparent KD of MS2 coat protein” value came out at 100 nM under setting [2], 48.5 nM under setting [1] and 98.1 nM under setting [3].

Take “AGUACUAACACGAAAGUGUUAGUACCAUAAGCUUGUGAAACAUGAGGAUCACCCAUGUCCUCAUAAGCUCGUCUUAU [salish99_TOv2_r3_041] (puzzle: Sensor v3, turn-off variant 2)”: the “apparent KD of MS2 coat protein” value by setting is: under setting [2], 18.8 nM; under setting [1], 720 nM; under setting [3], 19.5 nM.

On to “AGUACUAACACGAAAGUGUUAGUACUAUAAGCUUGUGAUACAUGAGGAUCACCCAUGUCCUCAUAAGCUCGUCUUAU [Mat - Sensor v3 - Turn-off var 2 - D101] (Eterna round: R96, puzzle: Sensor v3, turn-off variant 2)”, for which the “apparent KD of MS2 coat protein” value runs as follows: (input ligand: FMN 200 uM) 21.1 nM; under setting [4], 477 nM; (input ligand: none) 21.7 nM.

For the sequence “AGUACUAACACGAAAGUGUUAGUACUAUAAGCUUGUGAUACAUGAGGAUCACCCAUGUCCUCAUAAGCUCGUCUUAU [Mat - Sensor v3 - Turn-off var 2 - D101] (puzzle: Sensor v3, turn-off variant 2)”, the “apparent KD of MS2 coat protein” value is 19 nM under setting [2], 1820 nM under setting [1] and 19.6 nM under setting [3].

For the sequence “AGUACUAACACGAAUGUGUUAGUACAAUAAGCUUGUGAAACAUGAGGAUCACCCAUGUCCUCAUAAGCUCGUCUUAU [salish99_TOv2_r3_032] (puzzle: Sensor v3, turn-off variant 2)”, the “apparent KD of MS2 coat protein” value by setting is: under setting [2], 16.3 nM; under setting [1], 779 nM; under setting [3], 15.5 nM.

Consider “AGUACUAACACGAGAGUGUUAGUACUAUAAGCUUGUGUUACAUGAGGAUCACCCAUGUCCUCAUAGGCUCGUCUUAA [Mat - Sensor v3 - Turn-off var 2 - D82] (puzzle: Sensor v3, turn-off variant 2)”, for which the “apparent KD of MS2 coat protein” value is 75.8 nM under setting [2], 75.5 nM under setting [1] and 81.4 nM under setting [3].

Take “AGUACUAACACGAUAGUGUUAGUACAAUAAGCUUGUGUUACAUGAGGAUCACCCAUGUCCUCAUAAGCUCGUCUUAA [Mat - Sensor v3 - Turn-off var 2 - D59] (puzzle: Sensor v3, turn-off variant 2)”: the “apparent KD of MS2 coat protein” value reads like this: under setting [2], 44.3 nM; under setting [1], 594 nM; under setting [3], 35.3 nM.

For “AGUACUAACACGCCAGUGUUAGUACAAUAAGCUUGUGAAACAUGAGGAUCACCCAUGUCCUCAUAAGCUCGUCUUAU [salish99_TOv2_r3_028] (puzzle: Sensor v3, turn-off variant 2)”, the “apparent KD of MS2 coat protein” value turned out to be 16.9 nM under setting [2], 677 nM under setting [1] and 15.1 nM under setting [3].

Take “AGUACUAUCACGAAAGUGAUAGUACAAAAUAACAAGUGAACAUGAGGAUCACCCAUGUCCUCAUUUGCUCGUCUUAU [Sensor 3 - 18] (puzzle: Sensor v3, turn-off variant 2)”: the “apparent KD of MS2 coat protein” value under setting [2] was 418 nM, the “apparent KD of MS2 coat protein” value under setting [1] was determined as 925 nM and the “apparent KD of MS2 coat protein” value under setting [3] worked out at 421 nM.

Turning to “AGUACUAUGCGAGCUGACUUGCGUAGUGCAGCAGGUGGAACAUGAGGAUCACCCAUGUCCUCAUUUGCUCGUCUUAA [Mat - Sensor v3 - Turn-off var 2 - D5] (puzzle: Sensor v3, turn-off variant 2)”, the “apparent KD of MS2 coat protein” value under setting [2] was 27.4 nM, the “apparent KD of MS2 coat protein” value under setting [1] turned out to be 109 nM and the “apparent KD of MS2 coat protein” value under setting [3] stood at 29.8 nM.

In the case of “AGUACUAUGCGUGCUGACAUGCGUAGUGCAGCAGGUGUUACAUGAGGAUCACCCAUGUCCUCAUUUGCUCGUCUUAU [Mat - Sensor v3 - Turn-off var 2 - D15] (puzzle: Sensor v3, turn-off variant 2)”, the “apparent KD of MS2 coat protein” value is 75.7 nM under setting [2], 79.2 nM under setting [1] and 80.4 nM under setting [3].

With “AGUCAGAGAGGAUAUACAUGGGAAAAAAAAGUAAGAUCCCUACAUGAGGAUCACCCAUGUAGAAGGCUCUGACA [Ex2 Design 139: Sub-opt 3] (Eterna round: R96, puzzle: Exclusion 2)”, the “apparent KD of MS2 coat protein” value under setting [4] amounted to 17.3 nM.

Consider “AGUCGAAAGACCCACAUGGACAUGAGGAUCACCCAUGUGCAAGCCUUUUGCUCGUCAGCUAGGUCAAAAGACCUAGC [JL Omei mod 1] (Eterna round: R97, puzzle: Sensor, turn-off variant 1)”, for which the “apparent KD of MS2 coat protein” value was determined as 655 nM (input ligand: FMN 200 uM) and 813 nM (input ligand: none).

On to “AGUCUGCGAGGAUAUACAUGAGGAUCACCCAUGUGCGAAGAACUAGUGAGGUCGAUUGGUAGAAGGCGCGGACA [Mat - Exclusion 3 - Mod of JL D88] (puzzle: Exclusion 3)”, for which the “apparent KD of MS2 coat protein” value under setting [1] stood at 241 nM.

For the origin of these results see the supplement of paper PMC9170038.
